Data taken from the domain aggregation screens of Martell et al. (2025).

Assay: soluble fraction after stress (log2 fold change); higher = more stays soluble; pooled small domains, quantitative proteomics
Details: stress: pH 4
Method in brief: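 High-throughput quantitative proteomics was run on pooled custom libraries of small protein domains following pH 4 stress. Fold changes are on a log2 scale; higher values mean more of a domain remained soluble. The fold change in soluble amount is taken as a measure of aggregation propensity.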

Going from “HMKVSDLIGMLGRVTGELAPTGIVLVGNKTWTAISEDASVIASGEQVQVRSVAGLILTVSHQVD” to “HMKVSVPDIMDNSSLRQAEAKLRALGFRVTEPEYISGEKDWVYSVTYKGRTLNAGDKVPHEALLTLHVGNG”, the “soluble fraction (log2)” value rises from -0.954 to at least 0.43.

Going from “HMKVTADVVVADRLKAWIISNNLKPGDRLPTEQKLSEELGVARHTLREGIKRLSQLGIIGSRTGSGMYVKN” to “HMKWIEILKSKDGNYALLQDEKDTQFVVASGYNPDAAEDQKWGHGSYFIYWNNKENKAEMLMNAIDLFRYR”, the “soluble fraction (log2)” value falls from 0.158 to -1.34.

Going from “HMKYEFEFPYWSNKEAKHMIVTINYPNGTRATASIQDNDGSNPDYKRIMEEFGEEQIDANTEEGLKRR” to “HMKYEGEDEYYASLVTEKIAAIGTVTEESEDAIKEARAAYDALTSAQKKLVTNYDVLDEAEK”, the “soluble fraction (log2)” value rises from -0.816 to 0.302.

“HMKYGPSTVATLKVARLGEMGAFLDAETGDTSDDILLHKTQQTAPVKVGDEVEVFLYLDPKRRLTASMRV” and “HMKYGPSTVAVLTVVRESEMGAFLDAETGRTNDDILLHKTQQTEPVHIGDQVKVFLYLDPKHRLTASMRVP” are within 0.2 log units of each other in “soluble fraction (log2)” value: -1.07 for the first, -1.24 for the second.

Going from “HMKYNETEFKNLVAKLYNGEIEIVGKFTGLSYPILVKDKYGIMLSQKANLILNYRPTINIALNKTEYAMN” to “HMKYSELLLEIILQSKEHPTAEQIFIEAKKRNPKIVQATVYNNLKNLLAQGRVIRISNPGQPDRYDNT”, the “soluble fraction (log2)” value rises from -0.4 to 0.0505.

“HMKYVDYYATLGVARDADLATITKAYRKLARQTHPDLNQGADNEARFKAAAEAYATLKHPEKRAAYDELGQ” and “HMKYWTISDLYSKLEEDQVELGAFSEDSNKVTVLDRQGYEHVIKILSSDVPALTELFRKKKVRFAVAG” are within 0.2 log units of each other in “soluble fraction (log2)” value: 0.117 for the first, 0.0959 for the second.

Going from “HMKYYIYQGVGASGELTKIAEVTDQKTYTVTGLQAKTTYRFAVSSYNGLRESTKSNIVTVTT” to “HMLAAAVVVYATDKVNVRAEASETADVIGQLEAGSQTTRLEDKDGWSRIDYSNGTQGYMKSEFLSTEAPT”, the “soluble fraction (log2)” value falls from 0.22 to -0.622.

“HMLADEPTGALDSKTSVQIMALLTEIAQDRLVIMVTHNPELADEYATRIVNLRDGVISDDSDPFNP” and “HMLAEEAFNKQAATAGYVYRDGSYHPAASVAQYDAMPRNYRTNTMAQELSRSQVESQLQQSQ” are within 0.2 log units of each other in “soluble fraction (log2)” value: -0.289 for the first, -0.104 for the second.

“HMLAGKTYEVQTESGGKWTLVASYNVKSQAIQQAQALLESHKYSGVKVIAESDRKGEEVIFNEQSEVT” and “HMLALKSGQVVVGTIIRRLDNTTAMLRIGNQLFETSFAKGLPKSNHILLRYDAMQGNRFIFTMVE” are within 0.2 log units of each other in “soluble fraction (log2)” value: 0.104 for the first, -0.063 for the second.

Compared with “HMLANLNKELQNDAALLKQKAQGNSNLLAKIQDVEQQMKQVNTSSASDEAKAKELQTLQRKLTAYKKALA”, “HMLAVSVDKDGKVYIQDSETAVDAVTAKLRAISGNNSEIRIFVRGDADVNYGRIMEIMGVINAAGFRKVAL” is lower in “soluble fraction (log2)” value: -0.0638 for the first, -0.78 for the second.

Compared with “HMLDEIAGQKVRVLEEINNSEGTGKVMYRGVEWMARSVDDAVMAKDSIVTVQSISGVKLMVT”, “HMLDEKAVRQYLLNTLENSEIKMDRQAIDLFLRLTDLDLSKMMRELQKILLYGQEQEVITVKEIEQ” is lower in “soluble fraction (log2)” value: -0.498 for the first, -1.17 for the second.

“HMLDGFEVGMTVMKKSGTEIGFTGWPSFADKDELPIIERIDTSDSTLLLKFKDMSWWIKASLVEPS” and “HMLDLPEISARIMEVFETKDRATISELSKLTGTNINTIKKHLSSLVENNYLIKHGKTRGAWYTKST” are within 0.2 log units of each other in “soluble fraction (log2)” value: -0.396 for the first, -0.271 for the second.

Going from “HMLDLVSIGKRIKAERQKNGLTQEALAERIEVSAHYVYELERGLKAMSVPILLRMSEVLHTSTDYLLF” to “HMLDNHPQSKKIRALWLEMAAAGVVRDSSEQALALWVKRETGISALRWLSNEQASSVIEKLKKWQRRAAG”, the “soluble fraction (log2)” value rises from -0.48 to -0.0161.

“HMLDPKVFVGKAGINEGIAKLLLQAFDKADLVKVRFTAERDVMETQMQELARLTGSEVIGNVGRTATF” and “HMLEAMDSDEAAKVIEQIVNERADFVRSKGMGAIGPLMGPVMGALRGKVDGKQANELLTAAIKKLL” are within 0.2 log units of each other in “soluble fraction (log2)” value: 0.168 for the first, 0.177 for the second.

“HMLEASVYTAEKSGDRLDAFLAEQAGITRSYAQKLIEGGQVTLGGVVPKKNYKLSAGEQVELILPEN” and “HMLEKVLDNHIHKLRLQHKISQQELADAIGVSRKTISTVETGRFTPSVVIALKIAAHFSVSVEQVFTL” are within 0.2 log units of each other in “soluble fraction (log2)” value: -0.00206 for the first, -0.187 for the second.

First: HMLEPEVLDLIGQVKSVHHFSVTQSHQLEKLVRHAHTLGFEIAELKSLLASSPNAKSLLSSLDQKLEPLRM
Second: HMLEQEQFESKLLKAINNINETQRIAFLMHRIDGKKYAEIASELNISVKAVEKRIHLALIELKKEIENF
The “soluble fraction (log2)” value of the first is higher: 0.0896 for the first, -0.396 for the second.

“HMLEQISDINILSGYAKEVIAENPKTVSDYLSGKAAAFQALVGQVMKKTGGRGNPVIIQEILKRLIHKK” and “HMLERKPVLVASRDLPALAVIGKDDLSVELLRTAPVGSYDRPEALLGKRVWVAVPAGSILSAATLEP” are within 0.2 log units of each other in “soluble fraction (log2)” value: -0.182 for the first, -0.0428 for the second.

Going from “HMLERPLKLKSHYVSTIYEKVAVQYSEGEEKKSVMGTLIEVNQDTIVLDDRGTIIEIPFKSITRAKTVF” to “HMLETLVYPNPTTDKILLSSPVDYHLFSLKGELVLEGRGSSIEVSQLSKGVYFLNTKTQTFKIIK”, the “soluble fraction (log2)” value rises from -0.364 to -0.156.

“HMLGARSLNEAVARNLPQILAKYQLIHIAGKNGFNPELQGRGYVQYEYVDTELKDLMALADIVVSR” and “HMLGERIKQIRKQKKMTQTDVATGIITKSMLSMIENGKATPSLPALQAIARRLQVTVEELML” are within 0.2 log units of each other in “soluble fraction (log2)” value: -0.0512 for the first, 0.0227 for the second.

Going from “HMLGFELVGIRGNNPESTIIILERDDYRLVEQGQNINSSVIFSHIDGSRAYFFDGQTYTFLDI” to “HMLGITEGSLVRVIRSPNFGKIGTVAELPAELRMMESETMVRIAIVEIEGTNFEIPRSNLEVLET”, the “soluble fraction (log2)” value rises from -2.77 to -1.28.

Compared with “HMLGKEVVRAYNISYAIDDKGSLQGDLTAALTGLIPLSKPPVLDQRNRSLYVTATPEQHKDVAALLAKL”, “HMLGSGSKEQQLVILNNILERQVQAFNLQGGQEYPMVTLKNFYNTLSKMIENAGLKNVENYFVNPDVGKQM” is higher in “soluble fraction (log2)” value: -0.364 for the first, -0.0872 for the second.

“HMLHMKAALGELMSIPGMRSELAGTLFDRGYTSLAQLRAATLDDLERVNGLERADARRIHDFLRKS” and “HMLHQSLVVNAASGRVTVSLDIVPDEDNPYAVLRATDDSDEPLAQVRVAPSFKLNRASALAWIESQFARP” are within 0.2 log units of each other in “soluble fraction (log2)” value: -0.066 for the first, -0.128 for the second.

Going from “HMLHSEDATVVRQAIPLLERHVDAATVAVARRNLAQLEQFGRYPRRNQALGRISNPAENAYLRAER” to “HMLIDQYPYSIIYRLIPHGRSNAVPAAQIVGLTKLDERSIRIYVEAMRREGHIIASSSKGYYFPASIEE”, the “soluble fraction (log2)” value falls from -0.0503 to -0.589.

“HMLIGLNETESLVLDALIANPMRIDQVSAMLKKDVATTLKFLGGLSVRGLVETLFGGRFAPTKIALHARS” and “HMLIIMNSDATKEQVDHVTSRVREAGFKDHIMPGAGKVAIGVTGTGDYDQTKLHLEILPGVFKIMRITK” are within 0.2 log units of each other in “soluble fraction (log2)” value: -0.247 for the first, -0.0509 for the second.

Going from “HMLIPADETEAKVLSVLSREPLHVDEIRNQAGLPIEKISATLALMELKGMVRQVGGMNYVSV” to “HMLKDKLSDKDFDFYKNKIQIQLQGNPTELKELVRRFSSTEEQQILKTIDYMLDNGFLRIDEDNMIYWK”, the “soluble fraction (log2)” value falls from -0.48 to -1.8.
